# Laboratory results as given in patent US20180155451A1 (published 2018).
# Residue numbers refer to the chain shown, from its start.
# T1: FcγRIIa R (extracellular domain, C-terminal His tag) (human, UniProt P12318 34-217)
# T1 construct: extracellular domain; also called FcgRIIa R type; 2aR; not shown: His tag attached to the C terminus
# T1 sequence (looked up): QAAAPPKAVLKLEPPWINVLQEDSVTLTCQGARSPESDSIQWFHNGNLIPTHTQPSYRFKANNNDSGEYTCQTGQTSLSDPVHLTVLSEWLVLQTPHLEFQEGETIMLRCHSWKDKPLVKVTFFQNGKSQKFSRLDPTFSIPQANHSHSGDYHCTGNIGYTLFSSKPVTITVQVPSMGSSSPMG
# T2: FcγRIIb (human, UniProt P31994 43-217)
# T2 construct: extracellular domain; also called FcgRIIb; 2b
# T2 sequence (looked up): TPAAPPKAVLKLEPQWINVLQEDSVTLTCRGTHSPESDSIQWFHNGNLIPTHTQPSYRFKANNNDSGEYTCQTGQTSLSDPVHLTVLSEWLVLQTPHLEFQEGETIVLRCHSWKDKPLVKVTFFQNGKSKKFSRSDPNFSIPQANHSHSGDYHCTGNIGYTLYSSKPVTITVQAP
# T3: FcγRIIa H (human, UniProt P12318 34-217)
# T3 construct: extracellular domain; also called FcgRIIa H type; 2aH
# T3 sequence (looked up): T1 sequence (looked up) with R134H
# T4: FcγRIIb (extracellular domain, C-terminal His tag) (human, UniProt P31994 43-217)
# T4 construct: extracellular domain; also called FcgRIIb; 2b; not shown: His tag attached to the C terminus
# T4 sequence (looked up): T2 sequence (looked up)
# B1: GpH7-A5/GpH7-B3 variant S239_11K/GpL16-k0 (antibody, human IgG1, kappa)
# heavy 1: not shown
# heavy 2: not shown
# light: DIVMTQSPLSLPVTPGEPASISCQASESLVHSNRNTYLHWYLQKPGQSPQLLIYKVSNRFSGVPDRFSGSGSGTDFTLKISRVEAEDVGVYYCSQNTHVPPTFGQGTKVEIERTVAAPSVFIFPPSDEQLKSGTASVVCLLNNFYPREAKVQWKVDNALQSGNSQESVTEQDSKDSTYSLSSTLTLSKADYEKHKVYACEVTHQGLSSPVTKSFNRGEC
# notes: Heterodimerized anti-glypican-3 IgG1; alteration in only one H chain (GpH7-B3 side); also called He Ab
# B2: GpH7-A5/GpH7-B3 variant S239_12R/GpL16-k0 (antibody, human IgG1, kappa)
# heavy 1: not shown
# heavy 2: not shown
# light: B1 light
# notes: as for B1
# B3: GpH7-A5/GpH7-B3 variant S239_15Y/GpL16-k0 (antibody, human IgG1, kappa)
# heavy 1: not shown
# heavy 2: not shown
# light: B1 light
# notes: as for B1
# B4: GpH7-A5/GpH7-B3 variant S239_16H/GpL16-k0 (antibody, human IgG1, kappa)
# heavy 1: not shown
# heavy 2: not shown
# light: B1 light
# notes: as for B1
# B5: GpH7-A5/GpH7-B3 variant D265_04F/GpL16-k0 (antibody, human IgG1, kappa)
# heavy 1: not shown
# heavy 2: not shown
# light: B1 light
# notes: Heterodimerized anti-glypican-3 IgG1; substitution in only one H chain (the GpH7-B3 chain); also called He Ab
# B6: GpH7-A5/GpH7-B3 variant D265_06M/GpL16-k0 (antibody, human IgG1, kappa)
# heavy 1: not shown
# heavy 2: not shown
# light: B1 light
# notes: as for B5
# B7: GpH7-A5/GpH7-B3 variant D265_07I/GpL16-k0 (antibody, human IgG1, kappa)
# heavy 1: not shown
# heavy 2: not shown
# light: B1 light
# notes: as for B5
# B8: GpH7-A5/GpH7-B3 variant D265_11K/GpL16-k0 (antibody, human IgG1, kappa)
# heavy 1: not shown
# heavy 2: not shown
# light: B1 light
# notes: as for B5
# B9: GpH7-A5/GpH7-B3 variant D265_12R/GpL16-k0 (antibody, human IgG1, kappa)
# heavy 1: not shown
# heavy 2: not shown
# light: B1 light
# notes: as for B5
# B10: GpH7-A5/GpH7-B3 variant D265_13S/GpL16-k0 (antibody, human IgG1, kappa)
# heavy 1: not shown
# heavy 2: not shown
# light: B1 light
# notes: as for B5
# B11: GpH7-A5/GpH7-B3 variant D265_14T/GpL16-k0 (antibody, human IgG1, kappa)
# heavy 1: not shown
# heavy 2: not shown
# light: B1 light
# notes: as for B5
# B12: GpH7-A5/GpH7-B3 variant D265_15Y/GpL16-k0 (antibody, human IgG1, kappa)
# heavy 1: not shown
# heavy 2: not shown
# light: B1 light
# notes: as for B5
# B13: GpH7-A5/GpH7-B3 variant D265_16H/GpL16-k0 (antibody, human IgG1, kappa)
# heavy 1: not shown
# heavy 2: not shown
# light: B1 light
# notes: as for B5
# B14: GpH7-A5/GpH7-B3 variant D265_18N/GpL16-k0 (antibody, human IgG1, kappa)
# heavy 1: not shown
# heavy 2: not shown
# light: B1 light
# notes: as for B5
# Biological target: T1, FcγRIIa R (extracellular domain, …)
# Test: ratio of He/Con_2aR to He/Con_2b (FcγRIIb); SPR relative binding
# Experimental: (§1) The heterodimerized antibodies He Abs in which one of the H chains was introduced with an alteration were assayed for their binding activities to each activating FcγR and inhibitory FcγR according to the method described in Example 4. […] The activating FcγRs in FIGS. 26, 27, 28, and 29 are FcγRIa, FcγRIIa (R), FcγRIIa (H), and FcγRIIIa, respectively.
# (§2) Analysis of interaction between objective antibody and the FcγR was carried out using Biacore T100 (GE Healthcare). HBS-EP+ (GE Healthcare) was used as the running buffer, and the measurement temperature was set to 25° C. Chips produced by immobilizing the antigen peptide by the amine coupling method to a Series S Sencor Chip CM5 (GE Healthcare), or alternatively, chips produced by allowing preliminarily biotinylated antigen peptides to interact with and immobilize onto a Series S Sensor Chip SA (certified) (GE Healthcare) were used. Antibodies of interest were captured onto an antigen peptide-immobilized chip, and allowed to interact to each FcγR diluted with running buffer. To regenerate and repeatedly use the chip, the antibodies captured on the chip were washed off by reacting 10 mM glycine-HCl, pH 1.5.
row,Binder,He_2aR/2b (IIaR/IIb)
1,B1,1.96
2,B2,1.38
3,B3,1.21
4,B4,1.4

# Biological target: T2, FcγRIIb
# Test: SPR (Biacore), antibody captured on antigen-peptide chip, FcγR as analyte; binding relative to GpH7-A5/GpH7-B3/GpL16-k0 = 100
row,Binder,He/Con_2b
1,B5,3.2 % of HeCon Ab
2,B6,10 % of HeCon Ab
3,B7,1.3 % of HeCon Ab
4,B8,14.9 % of HeCon Ab
5,B9,15 % of HeCon Ab
6,B10,11.3 % of HeCon Ab
7,B11,16 % of HeCon Ab
8,B12,0.6 % of HeCon Ab
9,B13,38.3 % of HeCon Ab
10,B14,6.1 % of HeCon Ab

# Biological target: T3, FcγRIIa H
# Test: as above
row,Binder,He/Con_2aH
1,B5,4.1 % of HeCon Ab
2,B6,13.5 % of HeCon Ab
3,B7,3.1 % of HeCon Ab
4,B8,27.8 % of HeCon Ab
5,B9,28 % of HeCon Ab
6,B10,19.8 % of HeCon Ab
7,B11,24.1 % of HeCon Ab
8,B12,3.7 % of HeCon Ab
9,B13,48.6 % of HeCon Ab
10,B14,12.4 % of HeCon Ab

# Biological target: T4, FcγRIIb (extracellular domain, …)
# Test: SPR (Biacore), antibody captured on antigen-peptide chip, FcγR as analyte; relative binding amount
# Experimental: as §1, §2
row,Binder,He/Con_2b
1,B1,24.7 % of control (GpH7-A5/GpH7-B3/GpL16-k0 = 100)
2,B2,39.1 % of control (GpH7-A5/GpH7-B3/GpL16-k0 = 100)
3,B3,34.9 % of control (GpH7-A5/GpH7-B3/GpL16-k0 = 100)
4,B4,49.4 % of control (GpH7-A5/GpH7-B3/GpL16-k0 = 100)

# Biological target: T1, FcγRIIa R (extracellular domain, …)
# Test: as above
# Experimental: as §1, §2
row,Binder,He/Con_2aR
1,B1,48.5 % of control (GpH7-A5/GpH7-B3/GpL16-k0 = 100)
2,B2,53.9 % of control (GpH7-A5/GpH7-B3/GpL16-k0 = 100)
3,B3,42.2 % of control (GpH7-A5/GpH7-B3/GpL16-k0 = 100)
4,B4,69.2 % of control (GpH7-A5/GpH7-B3/GpL16-k0 = 100)

# Biological target: T3, FcγRIIa H
# Test: ratio of He/Con_2aH to He/Con_2b (relative SPR binding to FcγRIIa H over that of the same antibody to FcγRIIb)
row,Binder,He_2aH/2b (IIaH/IIb)
1,B5,1.28
2,B6,1.35
3,B7,2.35
4,B8,1.87
5,B9,1.87
6,B10,1.75
7,B11,1.5
8,B12,6.07
9,B13,1.27
10,B14,2.01
